Patent US20250066446A1, “FUSION PROTEINS FOR THE TREATMENT OF CARDIOMETABOLIC DISEASES” (Shattuck Labs, Inc., priority 2022, published 2025)

What was measured:
[1] = molecular target: T1, recombinant human Activin A (Homo sapiens, UniProt P08476); assay: MSD platform-based binding assay to plate-bound Activin A; conditions: 3× serial dilutions of culture supernatants of HEK293T cells transfected with mmRNA constructs
T1 sequence (P08476 311-426): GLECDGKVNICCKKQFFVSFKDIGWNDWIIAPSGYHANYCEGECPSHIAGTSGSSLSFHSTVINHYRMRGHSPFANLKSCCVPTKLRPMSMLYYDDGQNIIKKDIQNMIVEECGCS
Description: (§1) The binding by a recombinant human ACVR2B-Fc fusion protein to activin A (also known as Inhibin beta A) was characterized using a Meso Scale Discovery (MSD) platform-based assay. Briefly, Activin A was coated on a plate and 8× serial dilutions of the purified recombinant human ACVR2B-Fc fusion protein were also added in a series of wells. The protein captured by the plate-bound Activin A was detected using an anti-human Fc antibody and a SULFO-TAG conjugated secondary antibody.
(§2) The binding to Activin A by the GLP-1-Fc-ACVR2B fusion protein produced using the mmRNA constructs was investigated using a Meso Scale Discovery (MSD) platform-based assay. Briefly, HEK293T cells were transfected with each mRNA construct using lipofectamine 2000, and culture supernatants were collected after 48 hours. Activin A was coated on a plate, and 3× serial dilutions of the culture supernatants were added to the plate for capture by the plate-bound Activin A. The protein captured by the plate-bound Activin A was detected using an anti-human Fc antibody and a SULFO-TAG conjugated secondary antibody. The MSD signals generated by the culture supernatants of HEK293T cells transfected with different mmRNA constructs were plotted as a line graph.

[2] = molecular target: T2, recombinant human GDF-8 (Homo sapiens, UniProt O14793); assay: MSD platform-based binding assay to plate-bound GDF-8; conditions: 3× serial dilutions of culture supernatants of HEK293T cells transfected with mmRNA constructs
T2 sequence (O14793 267-375): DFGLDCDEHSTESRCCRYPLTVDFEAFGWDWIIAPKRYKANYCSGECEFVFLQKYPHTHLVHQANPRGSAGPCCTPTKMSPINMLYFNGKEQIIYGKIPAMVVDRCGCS
Description: as §1, with “GDF-8” for “activin A”, “myostatin)” for “Inhibin beta A)”, “GDF-8” for “Activin A”
as §2, with “GDF-8” for “Activin A”, “GDF-8.” for “Activin A.”

binding to Activin A [1]: binds to the human Activin A
binding to GDF-8 [2]: binds to the human GDF-8
B1: GLP-1-Fc-ACVR2B chimeric protein: GLP-1 fused to ACVR2B extracellular domain via a hinge-CH2-CH3 Fc domain derived from IgG1; SEQ ID NO: 154 (protein)
chain: SGRGEAETRECIYYNANWELERTNQSGLERCEGEQDKRLHCYASWRNSSGTIELVKKGCWLDDFNCYDRQECVATEENPQVYFCCCEGNFCNERFTHLPEAGGPEVTYEPPPTAPTLLT
